Measured values as given in patent publication US20090175872A1, “Treatment of Conditions Involving Demyelination” (BIOGEN Idec MA Inc., priority 2005, published 2009).

What was measured:
[1] = test system: spinal cord injury in Long Evans rats; assay: Spinal cord injury (dorsal hemisection), intrathecal mini-osmotic pump; format: in vivo, rat
Description: Spinal cord injury was induced in adult female Long Evans rats (190-210 g; Charles River). A dorsal hemisection was performed at T6/T7, completely interrupting the main dorsomedial and the minor dorsolateral corticospinal tract (CST) components. The cord was sterotaxically transected at a depth of 1.8 mm from the surface using a microscalpel. […] Postoperative care comprised analgesia (Buprenorphine/Buprenex, Reckitt Benckiset Healthcare Ltd., 0.05 mg/kg subcutaneously) every 8-12 hours for 3 days and antibiotic treatment (ampicillin, Bristol Myers Squibb, 100 mg/kg subcutaneously twice daily) for 7 days after surgery. Bladders were expressed manually twice a day for the duration of the study (4 weeks) or until return of function. On completion of the study, rats were anesthetized and trans-cardially perfused with heparinized saline followed by 4% paraformaldehyde (PFA). The spinal cords were removed, embedded in paraffin, and 10 μm sections were cut from for histological analysis.
To quantify apoptotic cell death after SCI, animals were euthanized 3 or 7 days after SCI and stained using anti-activated-Caspase-3 antibody (Cell Signaling Technologies) and TUNEL staining (Promega). The sections were also stained with anti-NeuN antibody (Chemicon) and anti-CC1 antibody (Calbiochem) to identify neurons and oligodendrocytes, respectively.

[2] = target: T1, human ErbB2 (Homo sapiens, UniProt P04626); assay: AP-Sp35 binding to ErbB2-transfected CHO cells; conditions: pre-incubation with soluble fusion protein, FIG. 17B
T1 construct: expressed in transfected cells; host or cells: CHO cells, transient transfection with Fugene 6, assayed after 48 hours
Description: ErbB2 is a member of the type I family of transmembrane receptor tyrosine kinases. The family comprises four members: epidermal growth factor receptor (EGFR or ErbB1), ErB2 (HER2 or neu), ErbB3 and ErbB4. Oligodendrocyte differentiation is positively regulated by the ErbB2 receptor tyrosine kinase. To examine the potential interaction between Sp35 and ErB2, an N-terminal AP-tagged human Sp35 protein was tested for binding to human ErbB2-transfected Chinese hamster ovary (CHO) cells.
90% confluent CHO cells were transfected with various combinations of human ErbB2 vector expression plasmid using Fugene 6 reagents (Roche). After 48 hours, the transfected cells were washed with HBH (Hank's balanced salt solution, 1 mg/ml BSA, 20 mM HEPES (pH 7.0)) and incubated for 1.5 hours at 23° C. or […] with 4 μg/ml of AP-Sp35 (human placental alkaline phosphotase (AP) with an N-terminal six histidine tag, fused to the C-terminus of human Sp35 (residues 34-532), as described in Mi et al., Nat. Neurosci. 7:221-228 (2004)) or control AP-protein in HBH. Bound AP-Sp35 was detected directly or following detergent lysis of the cells by ELISA and enzymatic activity was quantified with 4-NPP as described in Mi et al. Nat. Neurosci. 7:221-228 (2004).
In order to identify the Sp35 domain that binds ErbB2, soluble truncated forms of AP-Sp35 were tested for binding. Both the LRR domain of Sp35 (amino acids 34-417 of SEQ ID NO:2) (AP-Sp35-LRR) and the extracellular domain of Sp35 (amino acids 34-532 of SEQ ID NO:2) (AP-Sp35) bound to ErbB2 expressed in CHO cells. […] FIGS. 17B and 17C.

[3] = test system: A2B5+ oligodendrocytes; assay: Differentiation of A2B5+ oligodendrocytes treated with Sp35-Fc (O4 staining); format: cell-based, rat; conditions: increasing concentrations versus control-Fc, 48 h, FIG. 8
Description: Enriched populations of oligodendrocytes were grown from female Long Evans P2 rats as described by Conn, Meth. Neurosci. 2:1-4 (Academic Press; 1990) with modifications as follows. Briefly, the forebrain was dissected and placed in Hank's buffered salt solution (IBSS; Invitrogen). The tissue was cut into 1-mm fragments and was incubated at 37° C. for 15 min in 0.01% trypsin and 10 μg/ml DNase. Dissociated cells were plated on poly-L-lysine-coated T75 tissue culture flasks and were grown at 37° C. for 10 d in DMEM medium with 20% fetal calf serum (Invitrogen). Oligodendrocyte precursors (A2B5^+) were collected by shaking the flask overnight at 200 rpm at 37° C., resulting in a 95% pure population. Cultures were maintained in high-glucose Dulbecco's modified Eagle's medium (DMEM with FGF/PDGF (10 ng/ml; Peprotech) for 1 week. Removal of FGF/PDGF allowed A2B5+ cells to differentiate into O4^+ premyelinating oligodendrocytes after 3-7 d, and to differentiate into O4^+ and MBP^+ mature oligodendrocytes after 7-10 d. These differentiation states are readily apparent from changes in morphology: AB5^+ cells are bipolar in shape, O4^+ premyelinating oligodendrocytes have longer and more branched processes and MBP^+ mature oligodendrocytes contain myelin sheet structures between processes. […]

B1: Sp35-Fc: extra-cellular portion of human Sp35 (residues 1-532) fused to the hinge and Fc region of human IgG1 (protein)
chain: TGCPPRCECSAQDRAVLCHRKRFVAVPEGIPTETRLLDLGKNRIKTLNQDEFASFPHLEELELNENIVSAVEPGAFNNLFNLRTLGLRSNRLKLIPLGVFTGLSNLTKLDISENKIVILLDYMFQDLYNLKSLEVGDNDLVYISHRAFSGLNSLEQLTLEKCNLTSIPTEALSHLHGLIVLRLRHLNINAIRDYSFKRLYRLKVLEISHWPYLDTMTPNCLYGLNLTSLSITHCNLTAVPYLAVRHLVYLRFLNLSYNPISTIEGSMLHELLRLQEIQLVGGQLAVVEPYAFRGLNYLRVLNVSGNQLTTLEESVFHSVGNLETLILDSNPLACDCRLLWVFRRRWRLNFNRQQPTCATPEFVQGKEFKDFPDVLLPNYFTCRRARIRDRKAQQVFVDEGHTVQFVCRADGDPPPAILWLSPRKHLVSAKSNGRLTVFPDGTLEVRYAQVQDNGTYLCIAANAGGNDSMPAHLHVRSYSPDWPHQPNKTFAFISNQPGE
modifications: left off: a dimerising Fc or GST
notes: extra-cellular portion of human Sp35 (residues 1-532) fused to the hinge and Fc region of human IgG1
number of activated-Caspase-3-positive neurons and oligodendrocytes versus controls ([1]; 3 days after SCI, 0.25 μl/h of 25 μM intrathecal): significantly smaller
neuron and oligodendrocyte survival in tissue surrounding the lesion site versus controls ([1]; four weeks after SCI, anti-βIII-tubulin and anti-O4 staining): more neurons and oligodendrocytes survived
AP-Sp35 binding to ErbB2-expressing cells after pre-incubation [2]: blocked
differentiation of A2B5+ cells into O4+ cells [3]: promoted differentiation
